Assay results published in patent US20060110388A1 (APPLIED MOLECULAR EVOLUTION, published 2006).
Values joined by “and” are separate entries in the source; they are usually repeats but may differ in a detail not shown here. Equal entries are not always repeated.

Tests used:
[1] = biological target: T1, β Amyloid peptide 1-40 (human, UniProt P05067 672-711); test: KinExA, mAb
T1 construct: domain: β Amyloid peptide 1-40; Biotinylated peptide 1-40 (Biosource) on avidin Sepharose only captured free antibody in KinExA; also called Aβ 1-40; human Aβ (1-40)
Procedure: (§1) Typical 1× concentrations were 10 pM of antibody active sites (0.75 ng/mL) and an upper antigen concentration of 100 pM (0.43 ng/mL). The samples were then allowed to equilibrate for 24-72 hours at room temperature. A KinExA™ instrument (Sapidyne) and standard KD run file were then used to determine the KD of the system. Briefly, the KinExA™ flow cell was charged with the β Amyloid peptide coated beads and washed with PBSA. For the first sample, free antibody in solution was captured by the beads washed with PBSA and detected using 1:250 Goat anti-human Cy5 (Jackson Immunochemicals) in PBSA. The flow cell was then flushed, re-charged with beads and the next sample analyzed. The process was repeated until all 12 samples were analyzed.

[2] = biological target: T1, β Amyloid peptide 1-40; test: KinExA, mAb; remark: listed apart in the source
Procedure: (§2) For KinExA™ kₒₙ and koff measurements, antigen and antibody were prepared as described above. Antigen and antibody samples at 2× active concentration were prepared in PBSA with 0.2% BSA. Samples were mixed 1:1 and the timing for the experiment started. Typical 1× concentrations were 1 nM antibody active site concentration ([…]) and 2 nM antigen (8.6 ng/mL). A KinExA™ instrument (Sapidyne) and a kineticsdirect run file were used to follow the reaction. Time for each measurement was determined using the manufacturer's instructions. Free antibody remaining in the reaction was captured using β amyloid coated beads packed into the flow cell washed with PBSA and detected at each time point using 1:250 Goat anti-human Cy5 (Jackson) in PBSA. The flow cell was then flushed and recharged with beads for the next measurement, the process continued until a complete decay curve obtained. The data was analyzed using the KinExA™ Inject software.
(§3) Association rate constants (kₒₙ) of m266 and antibodies of the present invention with Aβ were determined by KinExA™, using methods as described above in Example 1. The results of two separate kₒₙ determinations by KinExA™, in which separate preparations of antibodies were used, are provided in Tables 7 and 8.

[3] = biological target: T1, β Amyloid peptide 1-40; test: BIAcore; against m266
Procedure: (§4) BIAcore™ is an automated biosensor system that measures molecular interactions (Karlsson, et al. (1991) J. Immunol. Methods 145: 229-240). BIAcore™ analyses described herein were carried out at 25° C. In these experiments, antibody was immobilized at low density on a BIAcore™ CM5 or B1 chip. For the m266 antibody goat anti-mouse Fc (Jackson Immunoresearch) immobilized on CM5 in flow cell 2 was used for measuring binding constants. Goat anti-mouse was used as control antibody in flow cell 1. For the humanized antibodies, protein A or protein A/G was immobilized via amine coupling to flow cells 1 and 2 of a B1 or CM5 sensor chip.
(§5) Antibody was then captured only to flow cell 2 at desired levels (usually a 10-60 second injection of antibody) and allowed to stabilize for 5 minutes. For these experiments, a fresh aliquot of Aβ 1-40 was thawed and then diluted 1:10 in HBS-EP running buffer. The 1:10 dilution was used to make up a 200 nM Aβ solution which was serially diluted (1:2 dilutions) to a lowest concentration of 6.25 nM. Each concentration was injected over the surface for 5 minutes at a flow rate of 50 μl/min (250 μl total). The Aβ and antibody were eluted from both flow cells with a 40s injection of glycine pH 1.5. The signal is allowed to stabilize for 2 minutes before the next cycle. The data from flow cell 1 is subtracted from flow cell 2 to account for any bulk shifts due to buffer differences or non-specific binding to the sensor chip or Protein A. The various concentrations were injected randomly and each concentration was run in duplicate. Two control runs of buffer only were used to control for any dissociation of antibody from the capture surface. The data was analyzed using the Biaevalution™ software. A 1:1 model with mass transfer and a local Rmax was used as the best fit for the data.
Concentrations of human Aβ (1-40) from 200 nM to 1.6 nM in 2-fold serial dilution were used to obtain on-rate constant. The upper half of Table 6 represents determinations made with a first set of antibody preparations, while the lower half represents determinations made with a second set of antibody preparations

[4] = biological target: T1, β Amyloid peptide 1-40; test: KinExA, mAb; against m266
Procedure: as §1

[5] = biological target: T1, β Amyloid peptide 1-40; test: KinExA, mAb; against m266; remark: listed apart in the source
Procedure: as §2, §3

[6] = biological target: T1, β Amyloid peptide 1-40; test: KinExA, mAb, equilibration 16 h
Procedure: as §1, with “The samples were then allowed to equilibrate for 24-72 hours at room temperature.” left out
as §2

[7] = biological target: T1, β Amyloid peptide 1-40; test: BIAcore, mAb captured, Aβ 1-40 injected, first set of preparations
Procedure: as §4, §5
Concentrations of human Aβ (1-40) from 200 nM to 1.6 nM in 2-fold serial dilution were used to obtain on-rate constant. […]

[8] = biological target: T1, β Amyloid peptide 1-40; test: KinExA, mAb, single experiment
Procedure: as §1

[9] = biological target: T1, β Amyloid peptide 1-40; test: BIAcore; m266 is the reference
[10] = biological target: T1, β Amyloid peptide 1-40; test: KinExA, mAb, single experiment; remark: listed apart in the source
Procedure: as §2, §3

[11] = biological target: T1, β Amyloid peptide 1-40; test: KinExA, mAb, single experiment; remark: listed apart in the source
Procedure: as §2, §3

[12] = biological target: T1, β Amyloid peptide 1-40; test: KinExA, mAb; m266 is the reference
[13] = biological target: T1, β Amyloid peptide 1-40; test: KinExA, mAb; m266 is the reference; remark: listed apart in the source
Procedure: as §2, §3

[14] = biological target: T1, β Amyloid peptide 1-40; test: KinExA, mAb, average of the experiments
Procedure: as §1

[15] = biological target: T1, β Amyloid peptide 1-40; test: KinExA, mAb, average of the experiments; remark: listed apart in the source
Procedure: as §2, §3

[16] = biological target: T1, β Amyloid peptide 1-40; test: KinExA, mAb, average of the experiments; remark: listed apart in the source
Procedure: as §2, §3

[17] = biological target: T1, β Amyloid peptide 1-40; test: KinExA, mAb, single experiment, separate antigen preparation
Procedure: as §2
(§6) Association rate constants (kₒₙ) of m266 and antibodies of the present invention with Aβ were determined by KinExA™, using methods as described above in Example 1. […]
(§7) ^aNumbers in bold are the averages calculated from individual experiments. ^bA separate preparation of antibodies was used for these experiments. ^cA separate preparation of antigen was used for these experiments.

[18] = biological target: T1, β Amyloid peptide 1-40; test: KinExA, mAb, single experiment, separate antibody preparation
Procedure: as §2, §6, §7

[19] = biological target: T1, β Amyloid peptide 1-40; test: KinExA, mAb, single experiment, separate antibody and antigen preparations
Procedure: as §2, §6, §7

[20] = biological target: T1, β Amyloid peptide 1-40; test: BIAcore, mAb captured by anti-mouse Fc, Aβ 1-40 injected, first set of preparations
Procedure: as §4
Antibody was then captured only to flow cell 2 at desired levels (usually a 10-60 second injection of antibody) and allowed to stabilize for 5 minutes. For these experiments, a fresh aliquot of Aβ 1-40 was thawed and then diluted 1:10 in HBS-EP running buffer. The 1:10 dilution was used to make up a 200 nM Aβ solution which was serially diluted (1:2 dilutions) to a lowest concentration of 6.25 nM. Each concentration was injected over the surface for 5 minutes at a flow rate of 50 μl/min (250 μl total). The Aβ and antibody were eluted from both flow cells with a 40s injection of glycine pH 1.5. The signal is allowed to stabilize for 2 minutes before the next cycle. […] The data was analyzed using the Biaevalution™ software. […]

T1 sequence (P05067 672-711 limits assumed): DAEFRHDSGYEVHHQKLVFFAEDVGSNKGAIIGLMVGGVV

B1: 1B7 monoclonal antibody (IgG1) (antibody, V domains shown)
VH: EVQLVESGGGLVKPGGSLRLSCAASGFTFSRYSMSWVRQAPGKGLEWVGQINSRGNSTYYPDTVKGRFTISRDDSKNTLYLQMNSLKTEDTAVYYCTTGDFWGQGTLVTVSS
VL: DIVMTQTPLSLSVTPGQPASISCRSSQSLIYSDGNAYLHWYLQKPGQSPQLLIYKVSNRFSGVPDRFSGSGSGTDFTLKISRVEAEDVGVYYCSQSTHSPWTFGGGTKVEIK
Kd [1]: 0.674 nM | kon [2]: 630000 M⁻¹ s⁻¹ | Fold Increase (kon) [3]: 5 fold | Fold increase in affinity [4]: 0.11 fold | Fold increase in kon [5]: 3 fold | Kd [6]: 0.122 nM | koff [6]: 0.000214 s⁻¹ | kon [6]: 1.76e+06 M⁻¹ s⁻¹ | kon [7]: 590000 M⁻¹ s⁻¹

B2: m266 monoclonal antibody (antibody, V domains shown)
VH: EVKLVESGGGLVQPGGSLKLSCAVSGFTFSRYSMSWVRQTPEKRLELVAQINSVGNSTYYPDTVKGRFTISRDNAEYTLSLQMSGLRSDDTATYYCASGDYWGQGTTLTVSS
VL: DVVMTQTPLSLPVSLGDQASISCRSSQSLIYSDGNAYLHWFLQKPGQSPKLLIYKVSNRFSGVPDRFSGSGSGTDFTLKISRVETEDLGVYFCSQSTHVPWTFGGGTKLEIK
modifications: CDR H2 N-glycosylated at the Asn-Ser-Thr sequence
notes: Captured by goat anti-mouse Fc in BIAcore (mouse Fc); also called mouse antibody 266
Kd [8]: 0.0675 nM and 0.0854 nM | Fold Increase (kon) [9]: 1 fold | kon [10]: 210000 M⁻¹ s⁻¹ and 240000 M⁻¹ s⁻¹ | kon [11]: 129000 M⁻¹ s⁻¹ and 127000 M⁻¹ s⁻¹ and 88000 M⁻¹ s⁻¹ | Kd [6]: 0.0765 nM | koff [6]: 6.73e-06 s⁻¹ | kon [6]: 88000 M⁻¹ s⁻¹ | Fold increase in affinity [12]: 1 fold | Fold increase in kon [13]: 1 fold | Kd [14]: 0.0765 nM | kon [15]: 230000 M⁻¹ s⁻¹ | kon [16]: 154000 M⁻¹ s⁻¹ | kon [17]: 157000 M⁻¹ s⁻¹ | kon [18]: 186000 M⁻¹ s⁻¹ | kon [19]: 240000 M⁻¹ s⁻¹ | kon [20]: 130000 M⁻¹ s⁻¹
